Test results from the supplement of paper PMC12042874.
± gives the uncertainty stated by the source.

assay: amyloid nucleation score (Sup35N fusion, yeast selection) (log enrichment); library NNK2; higher = more nucleation; inactive = no reads after selection
In short: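 Nucleation score: DiMSum log enrichment of output over input reads, centred on the mode score of non-aggregating sequences. Only sequences with at least 100 input reads were kept. Reads came from Illumina sequencing of plasmid inserts before and after 7 days of growth at 30°C without adenine and uracil, in psi-negative yeast expressing Sup35N fused to peptides of 20 random codons after 24 hours of induction with 100 μM copper sulfate.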

Substance	amyloid nucleation score
KTKLIRVFSTCRT	inactive
KTMNPYDFSLFIATIMKSLN	-0.476 ± 1.1
KTTLVHFFVAREYLWRRMWG	4.38 ± 0.084
KTTSISLAVEGYLVGISLIP	7.26 ± 0.078
KVDQGMQSSLRKCPFHQIKP	1.62 ± 0.32
KVFIANTIGHWCMNQQIMML	0.217 ± 0.36
KVGKDTVYKGQSIQSVYLRC	-0.41 ± 0.49
KVNKMPYSLFIYLKKLNFC	-0.518 ± 1.1
KVPMICSMEWRPLVSSHCTR	-0.718 ± 0.76
KVRLSDIPSLAMICFKRDIN	inactive
KVSGRYVEEYDHFPTDLSSL	-0.046 ± 0.54
KVSKTCY	0.497 ± 0.24
KWKASVSFFNGHWDGLFANL	5.07 ± 0.056
KWLND	0.205 ± 0.41
KWNQKKNRSCFKAQRWCKLP	-0.637 ± 1.1
KWSIRVGPQWV	3.43 ± 0.11
KWYICLKIIQWNCISDQC	5.38 ± 0.054
KYCSINCYRTASFQTFHLCW	6.231 ± 0.036
KYFMVVLVNIIFLYPGL	inactive
KYFVINPLIPIGQMEDIKLL	-0.156 ± 0.33
KYMRLSLEDYNC	0.533 ± 0.39
KYVCVI	0.809 ± 0.48
LAFGHVSVS	0.086 ± 0.55
LAGIRCVIDRLMLCRVDAIK	-0.656 ± 0.28
LAIVKGLVKSFLCYDFSGKV	inactive

Substance	amyloid nucleation score
LALRRDLFRVVLSNKTTSTR	1.07 ± 0.28
LALTWKAWTTHSPRKLAAVF	0.353 ± 0.31
LAMMELYVSRETGLWYM	-0.503 ± 0.32
LAMTAAKIMDRFNGCSLKSF	0.648 ± 0.74
LAPLDLSLVFWNTRNVLVL	0.746 ± 0.67
LAQLQ	-0.504 ± 0.78
LASTVNIEMVSVHRDWCVWM	5.326 ± 0.029
LATLRLWVTCQRIGISRRKG	7.017 ± 0.037
LCDGAMRMCGWMKLGVQLGV	2.82 ± 0.15
LCDMI	0.544 ± 0.29
LCDWCVLS	inactive
LCENWSSLFITMKPYDFSFP	-0.43 ± 1.1
LCFKLMNSKSWMRIQTAWTL	0.384 ± 0.34
LCFLVFMLRPRLASLYSRML	-1.11 ± 0.36
LCFNLLNPCGRFGVECGCVL	4.53 ± 0.069
LCGSRKRCGEMLRRKLGKYV	0.602 ± 0.81
LCGTLLIMKRVMSGYNLQAK	-0.37 ± 0.26
LCGWHD	0.733 ± 0.47
LCHEQLCGFRMFCYSHGR	3.58 ± 0.11
LCHKATSSFYPW	-0.808 ± 0.45
LCIGYFLV	-1.62 ± 1.1
LCLTYYRDHGVLASMYFHVW	0.529 ± 0.31
LCMQSVSGALSPSARRRLCV	-0.235 ± 1.1
LCNNPNGGIGQLKVL	0.515 ± 0.64
LCQHREMALMLGGEPADDWG	1.87 ± 0.36

Substance	amyloid nucleation score
LCRCNATRGGCCLFLGCFWL	2.73 ± 0.09
LCRKRYVRSHTTSWQTGGAF	0.888 ± 0.48
LCRVALKEDS	0.436 ± 0.8
LCSYANKDFKVHRSHDFVRV	0.369 ± 0.43
LCWLIVGKCGKGKTYDGFIG	-0.78 ± 1.1
LCYMFIFRTWMLLWVQTMKN	inactive
LDAERM	0.306 ± 0.23
LDALGLDTFNMQLV	0.236 ± 0.28
LDDWDGKTSRIHSGFYSRLR	0.224 ± 0.52
LDLRMRYQVPYQWGTNSAEN	0.629 ± 0.48
LDNWEL	0.145 ± 0.16
LDRMSRIRGSCRYACVL	1.15 ± 0.41
LDVKERTCL	0.261 ± 0.54
LDVYQ	-0.711 ± 0.64
LDWPDLENQAVVVNTWVSE	0.279 ± 0.5
LDWRTQFLCV	1.19 ± 0.61
LDYFNYCSSLGFHMVSVVYV	inactive
LDYSNFNTRKFAKDEGDMRR	8.371 ± 0.049
LEKKLFVKVYRHSICIGVAE	1.9 ± 0.43
LELKDNMAFDRSLFLKRHGG	-0.243 ± 0.28
LEPYLS	-0.48 ± 0.49
LERWYYPMS	0.513 ± 0.16
LEVRSAWGHLPFMSPEGL	-1.17 ± 0.44
LFAKDGLRSRLKEC	-0.033 ± 0.27
LFDLWSVEFC	-0.392 ± 0.43

Substance	amyloid nucleation score
LFEDVMRKGRWRDASGRWKH	3.27 ± 0.17
LFFCDPWPHLMWHLPRIVHL	-0.748 ± 0.42
LFFSCHRVDCHSALNMFIVS	5.53 ± 0.065
LFGHLVLYYPFSSTINCVVV	5.59 ± 0.056
LFGSVHGLTCVLSGLYCVQH	10.32 ± 0.04
LFIGSIILHYGEKEVKMLAT	0.571 ± 0.49
LFIRINWDFSNLWGTFGITV	0.553 ± 0.2
LFKDMYSDLKHILNCGFQTT	-0.711 ± 0.45
LFKMCTSVFRVCSAGMMELG	0.35 ± 0.27
LFLSGKEIPMNVFTIVCTDP	inactive
LFLTACER	6.721 ± 0.043
LFLTDTLMMYINSECR	1.75 ± 0.087
LFPLHFCNEHIMRLIKKLTG	0.579 ± 0.8
LFRDTSQLGNSVIVTYYM	9.029 ± 0.052
LFRYQRPLYGVRRTSTKVMA	0.226 ± 0.37
LFSHELADSSTVMKYTWWAV	4.23 ± 0.045
LFSTTRFVAHKAGR	0.47 ± 0.33
LFSVVLVGGARRSYLRGGPG	0.611 ± 0.81
LFSYDDMGALRVNMDWFYNF	inactive
LFTGRNRTSTHSSDISSRN	0.531 ± 0.66
LFVIGLLSGVSICVYCRSWS	3.41 ± 0.11
LFVKTLGFLAVCASQ	0.609 ± 0.64
LFWIGWLRRRKKGIGVANKG	0.001 ± 0.49
LGCEDIHKEYSLHFSIWMQM	0.975 ± 0.18
LGCYTYLQEVRMGEDTARGG	0.386 ± 0.39

Substance	amyloid nucleation score
LGDVYMWIFKKLLWVNHWDV	-0.033 ± 0.44
LGGGHKMDLFCYMISIWYYM	2.77 ± 0.18
LGHILV	inactive
LGIDAYCPWCVYECFSSRGE	9.586 ± 0.057
LGLAVKSRTPDLTGGPRASE	1.68 ± 0.18
LGLNLTRDYLMLGKRLKCCR	-0.993 ± 0.78
LGNDR	-0.744 ± 0.48
LGRNGASYLNDSCRIPNAGK	-0.562 ± 0.56
LGSAYSGKPHVFCS	inactive
LGSLNNPA	7.941 ± 0.077
LGYIRCLHSVSYLLFMYMLF	inactive
LGYRRSCEQGWGMLLGNYSH	inactive
LHCYCDLDDALTNPPAHHSR	0.605 ± 0.34
LHQRLV	0.195 ± 0.27
LHTWSVSLVYYNVFYLSSRA	-0.417 ± 1.1
LHWGEFEYCILCARGDIKR	-0.755 ± 0.5
LHWKWQMNCLWSEGSHCFNN	0.116 ± 0.33
LIDRIKWEGPFRIRWLFSWF	0.566 ± 0.66
LIFFCLFEYRLRLHCNRRDH	-1.34 ± 0.49
LIFFYSS	-1.05 ± 1
LIFQVMFVDCIEFRCWNMAL	0.959 ± 0.6
LILNIRTTGCGYFC	8.818 ± 0.049
LINCSSTLITIYSRYNAMYF	5.415 ± 0.049
LINLVWTDEITMSDYMKRSG	0.858 ± 0.17
LIPHSTSHRGFKLYSRVFYP	-0.047 ± 1.1

Substance	amyloid nucleation score
LIQSFSVLAMHDRLGCWRLR	2.74 ± 0.12
LIQVGQSST	0.046 ± 0.49
LIRFTLMSTFEITIMSFRCV	0.934 ± 0.2
LIRSFNSSYVEGRHANI	2.69 ± 0.14
LISSSFRSVLRPNWTPLKVC	inactive
LISVSTRKCVIIG	-0.326 ± 0.45
LIVESI	inactive
LIVKCSYLSWQAGIWAGFGY	2.9 ± 0.089
LKGSRNRATSDKGWKEG	0.306 ± 0.8
LKISVCQLRLFKLGARTRGW	0.158 ± 0.8
LKLASSGVHCLLFSYCRMAE	0.69 ± 0.62
LKMKFSYDWGVDTILLCRKA	0.284 ± 1.1
LKQLKISRRADNYVTQCNLV	2.91 ± 0.11
LKVISTCLRWQHASLPCQ	0.822 ± 0.43
LKYCVH	-0.414 ± 0.61
LKYIPRWVGTSLLQRKLCDF	-0.711 ± 1.1
LLANPIELRRYGPTSLKVGI	-0.669 ± 0.55
LLARVYKTICCMNWGFRNE	2.06 ± 0.1
LLCNGVSGGQTNQDIFHMPC	inactive
LLCYRWGHVN	0.057 ± 0.76
LLFMKTFVVRP	0.494 ± 0.26
LLFRRMEKSRLSLERV	-0.257 ± 0.45
LLFSG	1.62 ± 0.32
LLFWLIRETRSLLSIYLVGT	0.198 ± 0.46
LLGESRGVDSLQTTLWRSRR	0.334 ± 0.24

Substance	amyloid nucleation score
LLGLHELSTS	0.334 ± 0.46
LLGVFTETKGNP	2.53 ± 0.11
LLHSWSYRCV	0.039 ± 0.77
LLIRYSGFFCAPALTIPCGS	5.12 ± 0.078
LLLCYS	-0.344 ± 0.27
LLLNLRQGMTKIPIGFILLI	-0.64 ± 0.36
LLLVHL	1.08 ± 0.68
LLNFGVLGSDLSINKCNFSS	1.89 ± 0.18
LLNGPVYFFNLWVHGAC	8.126 ± 0.052
LLNVIVVRIK	5.313 ± 0.03
LLPSSFVGGVNDVVELLSCG	0.092 ± 1.1
LLRLRECQV	2.73 ± 0.14
LLRMLSYR	0.138 ± 1.1
LLRVDRCCWDN	-0.011 ± 0.54
LLSSWNKSYKIRTIGIIGNV	-0.848 ± 0.25
LLTLFG	-0.087 ± 0.56
LLTYYFVLTLVPSMFTSFVF	1.49 ± 0.15
LLVDTNYSSQMASERFRTCG	-0.34 ± 0.37
LLVGIGMFEEQFQLYHI	-0.867 ± 0.29
LLVML	0.851 ± 0.46
LLVRLSVCLSSEPANWDTG	4.2 ± 0.073
LLVVIPYGSYWDV	-0.501 ± 0.78
LLWPVA	0.386 ± 0.46
